According to article PMC8570500 (2021):

B1: HA-Vpx HIV-2.Gh1 WT [HIV-2 (Ghana-1 strain)] / DCAF1, endogenous (DDB1- and Cul4A-associated factor 1) [human (endogenous in HeLa)] (parent complex)
chain 1: MTDPRERVPPGNSGEETIGEAFEWLDRTIEALNREAVNHLPRELIFQVWQRSWRYWHDDQGMSPSYTKYRYLCLMQKAVFIHFKRGCTCLGGGHGPGGWRSGPPPPPPPGLV
chain 2: not shown

Variants of: B1
Assay: co-immunoprecipitation (anti-Flag IP of TASOR-Flag, western blot band quantification); Ternary read-out: endogenous DCAF1 recovered with TASOR-Flag (m24) in the presence of this HA-Vpx mutant, HeLa cells; lane 12; no value printed for the WT lane
With chain 1 Q47A, chain 1 V48A the screen value was 0.2.

Variants of: B1
Assay: co-immunoprecipitation (anti-Flag IP of TASOR-Flag, western blot band quantification); Ternary read-out: endogenous DCAF1 recovered with TASOR-Flag (m24) in the presence of this HA-Vpx mutant, HeLa cells; lane 11; no value printed for the WT lane
Variant chain 1 V48A has a screen value of 0.5.

Variants of: B1
Assay: co-immunoprecipitation (anti-Flag IP of TASOR-Flag, western blot band quantification); Ternary read-out: endogenous DCAF1 recovered with TASOR-Flag (m24) in the presence of this HA-Vpx mutant, HeLa cells; lane 10; no value printed for the WT lane
Variant chain 1 Q47A has a screen value of 1.
